Experimental findings from PMC10697951 are described below.

Data set [1] addresses SUV420H1(1–390) R357A (human) (UniProt Q4FZB7). As to the kind of experiment: MST; His-tagged SUV420H1 labelled with RED-tris-NTA (50 nM protein, 10 nM dye) kept constant; nucleosomes serially diluted from 6 μM to 45.75 pM; 20 mM HEPES pH 7.5, 50 mM NaCl, 50 mM KCl, 1 mg/mL BSA, 0.05% Tween-20, 40 μM SAM, 2 mM DTT; room temperature; triplicate.
The target in data set [2] is SUV420H1(1–390) K258A (human) (UniProt Q4FZB7). The description is as above.
For data set [3], the target named is SUV420H1(1–390) R357H (human) (UniProt Q4FZB7). The description is as above.
The target of data set [4] is SUV420H1(1–390) S255F (human) (UniProt Q4FZB7). The description is as above.
Data set [5] concerns the target SUV420H1(1–390) R286A (human) (UniProt Q4FZB7). The description is as above.
In data set [6] the target is SUV420H1(1–390) R352A (human) (UniProt Q4FZB7). The description is as above.
Data set [7] deals with SUV420H1(1–390), wild type, with N-terminal 6× His-TEV tag (human) (UniProt Q4FZB7). Described as above.
Data set [8] concerns the target SUV420H1(1–390) S283L (human) (UniProt Q4FZB7). The description is as above.
The target in data set [9] is SUV420H1(1–390) R257A (human) (UniProt Q4FZB7). The description is as above.
Data set [10] has as its target SUV420H1(1–390) R220A (human) (UniProt Q4FZB7). Described as above.
For the next data set, the target named is SUV420H1(63–390) (human) (UniProt Q4FZB7). The data set is described as above.
Data set [11] deals with SUV420H1(1–390) Y349A (human) (UniProt Q4FZB7). Described as above.
In a further data set the target is SUV420H1(1–335) (human) (UniProt Q4FZB7). Described as above.
For data set [12], the target named is SUV420H1(1-390) wild type (human) (UniProt Q4FZB7). As to the kind of experiment: MST. The settings on record: MST: 20 mM HEPES pH 7.5, 50 mM NaCl (listed twice), 50 mM KCl, 1 mg/mL BSA, 0.05% Tween-20, 40 uM SAM, 2 mM DTT, room temperature, EMSA: 25 mM HEPES pH 7.5 …. A general note: Mobility shift assays separate free from complexed probe on a gel.
Another data set concerns SUV420H1(1-335) (human). As to the kind of experiment: MST. The settings on record: histone H4 K20M; MST: 20 mM HEPES pH 7.5, 50 mM NaCl (listed twice), 50 mM KCl, 1 mg/mL BSA, 0.05% Tween-20, 40 uM SAM, 2 mM DTT, room temperature; EMSA: 25 mM HEPES pH 7.5 ….
A further data set concerns SUV420H1(63-390) (human). As to the kind of experiment: MST. The settings on record: histone H4 K20M; MST: 20 mM HEPES pH 7.5, 50 mM NaCl (listed twice), 50 mM KCl, 1 mg/mL BSA, 0.05% Tween-20, 40 uM SAM, 2 mM DTT, room temperature; EMSA: 25 mM HEPES pH 7.5 ….

Sequence of SUV420H1(1–390), wild type, with N-terminal 6× His-TEV tag (human) (Q4FZB7 1-390): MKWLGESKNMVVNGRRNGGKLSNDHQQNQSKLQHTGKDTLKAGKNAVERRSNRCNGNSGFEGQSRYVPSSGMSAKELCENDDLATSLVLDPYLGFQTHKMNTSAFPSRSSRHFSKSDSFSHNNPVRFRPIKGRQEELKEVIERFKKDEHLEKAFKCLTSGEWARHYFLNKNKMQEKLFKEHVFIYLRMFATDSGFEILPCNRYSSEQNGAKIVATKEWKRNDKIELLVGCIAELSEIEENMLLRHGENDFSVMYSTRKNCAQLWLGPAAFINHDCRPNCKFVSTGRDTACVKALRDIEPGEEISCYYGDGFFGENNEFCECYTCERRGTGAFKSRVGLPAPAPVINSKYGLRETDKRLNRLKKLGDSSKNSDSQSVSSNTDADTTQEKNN
Sequence of SUV420H1(1-390) wild type (human) (Q4FZB7 1-390): as above
Sequence of SUV420H1(1–390) S283L (human) (Q4FZB7 1-390 S283L): as the sequence (Q4FZB7 1-390) above, with S283L counted along it
Sequence of SUV420H1(1–390) R220A (human) (Q4FZB7 1-390 R220A): as the sequence (Q4FZB7 1-390) above, with R220A counted along it
Sequence of SUV420H1(1–390) R352A (human) (Q4FZB7 1-390 R352A): as the sequence (Q4FZB7 1-390) above, with R352A counted along it
Sequence of SUV420H1(1–335) (human) (Q4FZB7 1-335): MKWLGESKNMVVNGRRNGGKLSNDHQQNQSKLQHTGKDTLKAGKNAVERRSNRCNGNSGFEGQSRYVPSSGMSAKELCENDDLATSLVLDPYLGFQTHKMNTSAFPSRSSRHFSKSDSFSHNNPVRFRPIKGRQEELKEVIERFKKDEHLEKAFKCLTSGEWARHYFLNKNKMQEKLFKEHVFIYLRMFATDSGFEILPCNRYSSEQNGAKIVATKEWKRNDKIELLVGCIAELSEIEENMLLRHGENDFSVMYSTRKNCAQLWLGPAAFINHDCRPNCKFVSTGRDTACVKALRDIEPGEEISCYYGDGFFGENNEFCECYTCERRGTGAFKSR
Sequence of SUV420H1(1–390) R357A (human) (Q4FZB7 1-390 R357A): as the sequence (Q4FZB7 1-390) above, with R357A counted along it
Sequence of SUV420H1(1–390) R257A (human) (Q4FZB7 1-390 R257A): as the sequence (Q4FZB7 1-390) above, with R257A counted along it
Sequence of SUV420H1(1–390) K258A (human) (Q4FZB7 1-390 K258A): as the sequence (Q4FZB7 1-390) above, with K258A counted along it
Sequence of SUV420H1(1–390) S255F (human) (Q4FZB7 1-390 S255F): as the sequence (Q4FZB7 1-390) above, with S255F counted along it
Sequence of SUV420H1(63–390) (human) (Q4FZB7 63-390): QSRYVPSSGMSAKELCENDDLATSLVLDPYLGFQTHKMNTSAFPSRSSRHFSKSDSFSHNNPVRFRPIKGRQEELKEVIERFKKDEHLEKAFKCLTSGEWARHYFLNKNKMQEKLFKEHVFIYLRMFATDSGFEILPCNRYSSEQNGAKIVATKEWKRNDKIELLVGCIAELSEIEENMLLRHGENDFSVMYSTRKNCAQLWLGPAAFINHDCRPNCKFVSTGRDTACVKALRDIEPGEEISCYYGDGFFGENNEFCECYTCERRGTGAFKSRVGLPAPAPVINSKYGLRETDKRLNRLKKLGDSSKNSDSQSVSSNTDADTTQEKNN
Sequence of SUV420H1(1–390) R357H (human) (Q4FZB7 1-390 R357H): as the sequence (Q4FZB7 1-390) above, with R357H counted along it
Sequence of SUV420H1(1–390) Y349A (human) (Q4FZB7 1-390 Y349A): as the sequence (Q4FZB7 1-390) above, with Y349A counted along it
Sequence of SUV420H1(1–390) R286A (human) (Q4FZB7 1-390 R286A): as the sequence (Q4FZB7 1-390) above, with R286A counted along it

In the case of “H2A-containing nucleosome core particle with H4K20M (from UniProt P04908 16-130; P06899 1-126; P68431 1-136) (complex)”, the dissociation constant (Kd) (commonly the constant that tells how readily two partners part at equilibrium) in data set [1] turned out to be 213 nM; in data set [2], 112 nM; in data set [3], 83 nM; in data set [4], 182 nM; in data set [5], 323 nM; in data set [6], 220 nM. Moreover, the Kd in data set [7] was 62 nM; in data set [8] it was 85 nM; in [9], 144 nM; in data set [10] it was 93 nM; in the data set with SUV420H1(63–390) (human), 410 nM; in [11], 108 nM. Moreover, the Kd with SUV420H1(1–335) (human) came to 292 nM.
NCP H2A, H4K20 (canonical): in [12], the equilibrium dissociation constant (Kd) was determined as 227 nM.
For the substance NCP H2A, H4K20M, the results for the Kd (in the data set with SUV420H1(1-335) (human); with SUV420H1(63-390) (human); in [12] (histone H4 K20M)) were 292 nM, 410 nM and 62 nM, respectively.
In turn, “H2A.Z-containing nucleosome core particle with wild-type H4 (H4K20) (from UniProt P0C0S5 14-126; P06899 1-126; P68431 1-136; P62805 1-103) (complex)” gave a dissociation constant (Kd) in data set [7] of 130 nM.
The substance NCP H2A.Z, H4K20 gave a Kd in data set [12] (histone variant H2A.Z) of 130 nM. That is a sub-micromolar value.
In data set [7], “H2A-containing nucleosome core particle with wild-type H4 (H4K20) (from UniProt P04908 16-130; P06899 1-126; P68431 1-136; P62805 1-103) (complex)” gave a Kd of 227 nM.
